Laboratory results reported in US20050276799A1 (PDL BIOPHARMA, published 2005).
Where a chain is given by its changes, count along the chain named. Names may count otherwise.

B1: OST577-IgG1 wild-type (antibody)
heavy: not shown
light: SYVLTQPPSVSVAPGQTARITCGGDNIGSKSVNWFQQKPGQAPVLVVYDDNERPSGISERFSGSNSGNTATLTISRVEAGDEADYYCQVWDSSSDHVVFGGGTKLTVLGQPKAAPSVTLFPPSSEELQANKATLVCLISDFYPGAVTVAWKADSSPVKAGVETTTPSKQSNNKYAASSYLSLTPEQWKSHRSYSCQVTHEGSTVEKTVAPTECS
notes: Human anti-HBV antibody, IgG1 heavy, lambda-2 light
B2: OST577-IgG1 M428L (antibody)
heavy: not shown
light: B1 light
B3: OST577-IgG1 T250Q/M428L (antibody)
heavy: not shown
light: B1 light
B4: OST577-IgG1 T250Q (antibody)
heavy: not shown
light: B1 light
B5: OST577-IgG2M3 L314A (antibody)
heavy: QVQLVESGGGVVQPGRSLRLSCAASGFTFSRYGMHWVRQAPGKGLEWVAVISYDGSNKWYADSVKGRFTISRDNSKNTLFLQMHSLRAADTGVYFCAKDQLYFGSQSPGHYWGQGTLVTVSSASTKGPSVFPLAPCSRSTSESTAALGCLVKDYFPEPVTVSWNSGALTSGVHTFPAVLQSSGLYSLSSVVTVPSSNFGTQTYTCNVDHKPSNTKVDKTVERKCCVECPPCPAPPAAAPSVFLFPPKPKDTLMISRTPEVTCVVVDVSHEDPEVQFNWYVDGVEVHNAKTKPREEQFNSTFRVVSVLTVVHQDWANGKEYKCKVSNKGLPAPIEKTISKTKGQPREPQVYTLPPSREEMTKNQVSLTCLVKGFYPSDIAVEWESNGQPENNYKTTPPMLDSDGSFFLYSKLTVDKSRWQQGNVFSCSVMHEALHNHYTQKSLSLSPSK
light: B1 light
B6: OST577-IgG2M3 T250V (antibody)
heavy: B5 heavy with T251V, A315L
light: B1 light
B7: OST577-IgG2M3 L314W (antibody)
heavy: B5 heavy with A315W
light: B1 light
B8: OST577-IgG2M3 T250A (antibody)
heavy: B5 heavy with T251A, A315L
light: B1 light
B9: OST577-IgG2M3 L314R (antibody)
heavy: B5 heavy with A315R
light: B1 light
B10: OST577-IgG2M3 L314Q (antibody)
heavy: B5 heavy with A315Q
light: B1 light
B11: OST577-IgG2M3 T250S (antibody)
heavy: B5 heavy with T251S, A315L
light: B1 light
B12: OST577-IgG2M3 M428G (antibody)
heavy: B5 heavy with A315L, M429G
light: B1 light
B13: OST577-IgG2M3 T250Q/M428L (antibody)
heavy: B5 heavy with T251Q, A315L, M429L
light: B1 light
B14: OST577-IgG2M3 T250Q/M428F (antibody)
heavy: B5 heavy with T251Q, A315L, M429F
light: B1 light
B15: OST577-IgG2M3 M428L (antibody)
heavy: B5 heavy with A315L, M429L
light: B1 light
B16: OST577-IgG2M3 T250Q (antibody)
heavy: B5 heavy with T251Q, A315L
light: B1 light
B17: OST577-IgG2M3 T250D (antibody)
heavy: B5 heavy with T251D, A315L
light: B1 light
B18: OST577-IgG1 M428F (antibody)
heavy: not shown
light: B1 light
B19: OST577-IgG1 T250E (antibody)
heavy: not shown
light: B1 light
B20: OST577-IgG1 T250E/M428F (antibody)
heavy: not shown
light: B1 light

What follows are binders tested against T1, recombinant, GPI-linked human FcRn on cell line NS0 HuFcRn (memb), clone 7-3 (human, UniProt P55899 24-297; P61769 21-119) (assay: competition FACS vs biotinylated OST577-IgG1 on NS0 cells expressing human FcRn, FBB pH 6.0).
T1 construct: Expressed from pDL208 on the surface of NS0 cells; also called human neonatal Fc receptor; not shown: human c-myc decapeptide flanked by linker peptides, then GPI linkage signal of human decay accelerating factor (vector p)
Work on B1 yielded an IC50 of 10.3 µg/mL.
Work on B2 yielded an IC50 of 0.896 µg/mL.
In the case of B3, the IC50 is reported as 0.351 µg/mL.
With B4 the IC50 was 3.14 µg/mL.

What follows are binders tested against T1, recombinant, GPI-linked human FcRn on … (assay: competition FACS vs biotinylated HuEP5C7-IgG2M3 on NS0 cells expressing human FcRn, FSB pH 6.0).
For B5, the IC50 was 68.7 µg/mL.
B6 showed an IC50 of 19 µg/mL.
With B7 the IC50 was 20.2 µg/mL.
Binder B8 has an IC50 of 13.3 µg/mL.
B9 showed an IC50 of 102 µg/mL.
B10 gave an IC50 of 32 µg/mL.
B11 was tested, and the IC50 was 12 µg/mL.
B12 gave an IC50 of 147 µg/mL.

These binders were tested against T1, recombinant, GPI-linked human FcRn on … (assay: competition FACS vs biotinylated OST577-IgG2M3 on NS0 cells expressing human FcRn, FBB pH 6.0).
Work on B13 yielded an IC50 of 0.43 µg/mL.
For B14, the IC50 was 1.5 µg/mL.
B15 gave an IC50 of 1.79 µg/mL.
Work on B16 yielded an IC50 of 4.2 µg/mL.

These binders were tested against T1, recombinant, GPI-linked human FcRn on … (assay: IC50 of wild-type / IC50 of this antibody, same assay).
B5 was tested, and the “Relative Binding” value was 0.16 ratio.
For B6, the “Relative Binding” value was 0.56 ratio.
In the case of B7, the “Relative Binding” value is reported as 0.53 ratio.
With B8 the “Relative Binding” value was 0.8 ratio.
With B9 the “Relative Binding” value was 0.11 ratio.
B17 was tested, and the “Relative Binding” value was less than 0.05 ratio.
With B10 the “Relative Binding” value was 0.33 ratio.
For B11, the “Relative Binding” value was 0.89 ratio.
In the case of B12, the “Relative Binding” value is reported as 0.072 ratio.

What follows are binders tested against T2, recombinant, GPI-linked rhesus FcRn on cell line NS0 RhFcRn, clone R-3 (rhesus, UniProt H9Z6D2 24-297; Q6V7J5 21-119, GPI-linked) (assay: competition FACS vs biotinylated OST577-IgG2M3 on NS0 cells expressing rhesus FcRn, FBB pH 6.0).
T2 construct: Expressed from pDL410 on the surface of NS0 cells; not shown: human c-myc decapeptide flanked by linker peptides, then GPI linkage signal of human decay accelerating factor (vector p)
B13 was tested, and the IC50 was 0.554 µg/mL.
B14 showed an IC50 of 1.77 µg/mL.
In the case of B15, the IC50 is reported as 1.92 µg/mL.
Binder B16 has an IC50 of 4.05 µg/mL.

What follows are binders tested against T2, recombinant, GPI-linked rhesus FcRn on … (assay: IC50 of wild-type / IC50 of this antibody, same assay).
B1 was tested, and the “Relative Binding” value was 1 ratio.
B2 was tested, and the “Relative Binding” value was 14 ratio.
In the case of B3, the “Relative Binding” value is reported as 37 ratio.
With B4 the “Relative Binding” value was 3 ratio.

Target: T2, recombinant, GPI-linked rhesus FcRn on …
Assay: as above
Remark: another data set of the same source
In the case of B13, the “Relative Binding” value is reported as 27 ratio.
For B14, the “Relative Binding” value was 8.4 ratio.
In the case of B15, the “Relative Binding” value is reported as 7.7 ratio.
B16 was tested, and the “Relative Binding” value was 3.6 ratio.

Target: T1, recombinant, GPI-linked human FcRn on …
Assay: as above
Remark: another data set of the same source
In the case of B13, the “Relative Binding” value is reported as 28 ratio.
For B14, the “Relative Binding” value was 8 ratio.
With B15 the “Relative Binding” value was 6.7 ratio.
In the case of B16, the “Relative Binding” value is reported as 2.8 ratio.

What follows are binders tested against T2, recombinant, GPI-linked rhesus FcRn on … (assay: competition FACS vs biotinylated OST577-IgG1 on NS0 cells expressing rhesus FcRn, FBB pH 6.0).
In the case of B1, the IC50 is reported as 8.86 µg/mL.
With B2 the IC50 was 0.629 µg/mL.
B3 was tested, and the IC50 was 0.236 µg/mL.
In the case of B4, the IC50 is reported as 2.97 µg/mL.

Target: T1, recombinant, GPI-linked human FcRn on …
Assay: IC50 of wild-type / IC50 of this antibody, same assay
Remark: another data set of the same source
With B1 the “Relative Binding” value was 1 ratio.
With B2 the “Relative Binding” value was 11 ratio.
B3 was tested, and the “Relative Binding” value was 29 ratio.
With B4 the “Relative Binding” value was 3.3 ratio.

Target: T1, recombinant, GPI-linked human FcRn on …
Assay: competition FACS vs biotinylated OST577-IgG1 on NS0 cells expressing human FcRn, FBB pH 6.0
Remark: another data set of the same source
With B1 the IC50 was 13.9 µg/mL.
Binder B18 has an IC50 of 3.44 µg/mL.
With B19 the IC50 was 5.26 µg/mL.
B20 gave an IC50 of 0.99 µg/mL.

Target: T1, recombinant, GPI-linked human FcRn on …
Assay: IC50 of wild-type / IC50 of this antibody, same assay
Remark: another data set of the same source
B1 was tested, and the “Relative Binding” value was 1 ratio.
B18 was tested, and the “Relative Binding” value was 4 ratio.
In the case of B19, the “Relative Binding” value is reported as 2.6 ratio.
With B20 the “Relative Binding” value was 14 ratio.
